We go through 61 substances from US12059458B2, “Peptides and combination of peptides and scaffolds for use in immunotherapy against renal cell carcinoma (RCC) and other cancers” (Immatics Biotechnologies GmbH, priority 2015, dated 2024).

This assay deals with HLA-A*02:01 (Homo sapiens, UniProt P04439, D140Y/D185E/D98H/E176V/E277Q/G131W/G231S/I119V/I121R/I166T/I218V/L300P/L318F/N151K/N90K/P208A/P217A/Q86G/Q94H/R138H/R169H/T345S). Put plainly: MHC binding assay (UV-ligand exchange, beta2m ELISA, peptide exchange yield). As to conditions: binding to HLA-A*02:01 ranged by peptide exchange yield, β2m ELISA. The source says: Candidate peptides for T cell based therapies according to the present invention were further tested for their MHC binding capacity (affinity). The individual peptide-MHC complexes were produced by UV-ligand exchange, where a UV-sensitive peptide is cleaved upon UV-irradiation, and exchanged with the peptide of interest as analyzed. Only peptide candidates that can effectively bind and stabilize the peptide-receptive MHC molecules prevent dissociation of the MHC complexes. To determine the yield of the exchange reaction, an ELISA was performed based on the detection of the light chain (β2m) of stabilized MHC complexes. The assay was performed as generally described in Rodenko et al. (Rodenko et al., 2006).
96 well MAXISorp plates (NUNC) were coated over night with 2 ug/ml streptavidin in PBS at room temperature, washed 4× and blocked for 1 h at 37° C. in 2% BSA containing blocking buffer. Refolded HLA-A*02:01/MLA-001 monomers served as standards, covering the range of 15-500 ng/ml. Peptide-MHC monomers of the UV-exchange reaction were diluted 100 fold in blocking buffer. Samples were incubated for 1 h at 37° C., washed four times, incubated with 2 ug/ml HRP conjugated anti-β2m for 1h at 37° C., washed again and detected with TMB solution that is stopped with […]. Absorption was measured at 450 nm. Candidate peptides that show a high exchange yield (preferably higher than 50%, most preferred higher than 75%) are generally preferred for a generation and production of antibodies or fragments thereof, and/or T cell receptors or fragments thereof, as they show sufficient avidity to the MHC molecules and prevent dissociation of the MHC complexes.
A general note: An ELISA detects its analyte on a solid surface through an enzyme-linked reagent.
For the substance “100 (KLNVAPLAV; listed as Homo sapiens) [compound 100]”, the “Peptide exchange (MHC class I binding score)” value (“Peptide exchange” for short) is listed as “++ (≥20% = ++)”. With “65 (IIYGGSVTGA; listed as Homo sapiens) [compound 65]”, the “Peptide exchange” value was “++ (≥20% = ++)”. On to “47 (TLAEVRAVQEI; listed as Homo sapiens) [compound 47]”, for which the “Peptide exchange” value is “+++ (≥50 = +++)”. “27 (SLSDLLVSL; listed as Homo sapiens) [compound 27]”: the “Peptide exchange” value was “+++ (≥50 = +++)”.

Turning to “62 (VLAGPAFLVQL; listed as Homo sapiens) [compound 62]”, the “Peptide exchange” value was “+++ (≥50 = +++)”. On to “105 (ALADLDELLIRA; listed as Homo sapiens) [compound 105]”, for which the “Peptide exchange” value is “+++ (≥50 = +++)”. In the case of “49 (VLIVEVPGV; listed as Homo sapiens) [compound 49]”, the “Peptide exchange” value is recorded as “+++ (≥50 = +++)”. For the substance “21 (RLIQGDQILSV; listed as Homo sapiens) [compound 21]”, the “Peptide exchange” value is on record as “++ (≥20% = ++)”. As for “111 (TLLETEMLL; listed as Homo sapiens) [compound 111]”, the “Peptide exchange” value is reported as “++ (≥20% = ++)”.

“45 (ALLGIPLTL; listed as Homo sapiens) [compound 45]”: the “Peptide exchange” value was “+++ (≥50 = +++)”.

On to “102 (LLFDVHTTL; listed as Homo sapiens) [compound 102]”, for which the “Peptide exchange” value is recorded as “+++ (≥50 = +++)”. In the case of “108 (VLISVLQAI; listed as Homo sapiens) [compound 108]”, the “Peptide exchange” value was “++ (≥20% = ++)”.

As for “104 (ALFEGVVRQI; listed as Homo sapiens) [compound 104]”, the “Peptide exchange” value is given as “+++ (≥50 = +++)”.

Take “51 (NLWPMILTL; listed as Homo sapiens) [compound 51]”: the “Peptide exchange” value is given as “+++ (≥50 = +++)”. In the case of “19 (LLDPGSLQL; listed as Homo sapiens) [compound 19]”, the “Peptide exchange” value is on record as “++ (≥20% = ++)”.

Consider “52 (SILDAVQRV; listed as Homo sapiens) [compound 52]”, for which the “Peptide exchange” value is listed as “++ (≥20% = ++)”. “97 (TLISELVQA; listed as Homo sapiens) [compound 97]”: the “Peptide exchange” value is on record as “++ (≥20% = ++)”.

As to “11 (FIQTEAPKEV; listed as Homo sapiens) [compound 11]”, the “Peptide exchange” value was “++ (≥20% = ++)”. Regarding “44 (ALFSFVTAL; listed as Homo sapiens) [compound 44]”, the “Peptide exchange” value is given as “+++ (≥50 = +++)”. “56 (ILMDFSNSM; listed as Homo sapiens) [compound 56]”: the “Peptide exchange” value is recorded as “+++ (≥50 = +++)”. In the case of “59 (SLKNNVVSV; listed as Homo sapiens) [compound 59]”, the “Peptide exchange” value is recorded as “+++ (≥50 = +++)”. On to “14 (ALLTETIFL; listed as Homo sapiens) [compound 14]”, for which the “Peptide exchange” value was “++ (≥20% = ++)”. For “103 (KLQDGLLHI; listed as Homo sapiens) [compound 103]”, the “Peptide exchange” value is listed as “++ (≥20% = ++)”.

“63 (GLIEDHFDVTV; listed as Homo sapiens) [compound 63]”: the “Peptide exchange” value was “++ (≥20% = ++)”. For “33 (FIADVVEKI; listed as Homo sapiens) [compound 33]”, the “Peptide exchange” value is “++ (≥20% = ++)”. For “25 (LLVPAHLVAA; listed as Homo sapiens) [compound 25]”, the “Peptide exchange” value is given as “++ (≥20% = ++)”. Regarding “110 (LLDLHSYLL; listed as Homo sapiens) [compound 110]”, the “Peptide exchange” value is reported as “++ (≥20% = ++)”. Turning to “107 (VLMDLKALLL; listed as Homo sapiens) [compound 107]”, the “Peptide exchange” value is “+++ (≥50 = +++)”. “82 (SLLQATDFMSL; listed as Homo sapiens) [compound 82]”: the “Peptide exchange” value is “+++ (≥50 = +++)”.

Consider “84 (YLMDEGAHL; listed as Homo sapiens) [compound 84]”, for which the “Peptide exchange” value was “++ (≥20% = ++)”.

Take “106 (VLMDLKALL; listed as Homo sapiens) [compound 106]”: the “Peptide exchange” value was “+++ (≥50 = +++)”. Turning to “79 (ALADIVWRA; listed as Homo sapiens) [compound 79]”, the “Peptide exchange” value is recorded as “+++ (≥50 = +++)”. To “12 (ALDPSGNQLI; listed as Homo sapiens) [compound 12]” belongs “++ (≥20% = ++)”; to “55 (YLALILPVL; listed as Homo sapiens) [compound 55]”, “++ (≥20% = ++)”. In the case of “40 (YIQEHLLQI; listed as Homo sapiens) [compound 40]”, the “Peptide exchange” value was “+++ (≥50 = +++)”. Take “78 (ALLDTVVQA; listed as Homo sapiens) [compound 78]”: the “Peptide exchange” value is reported as “++ (≥20% = ++)”.

In the case of “5 (YLYPNLTRL; listed as Homo sapiens) [compound 5]”, the “Peptide exchange” value was “++ (≥20% = ++)”.

As for “77 (SLIKHKIML; listed as Homo sapiens) [compound 77]”, the “Peptide exchange” value was “++ (≥20% = ++)”. In the case of “4 (FLSQDIITV; listed as Homo sapiens) [compound 4]”, the “Peptide exchange” value is “+++ (≥50 = +++)”. Under “93 (GVMAGDIYSV; listed as Homo sapiens) [compound 93]” stands “++++ (≥75% = ++++)”. With “41 (GLLKTLQKL; listed as Homo sapiens) [compound 41]”, the “Peptide exchange” value is on record as “++ (≥20% = ++)”.

As for “64 (LLAASVALA; listed as Homo sapiens) [compound 64]”, the “Peptide exchange” value is listed as “++ (≥20% = ++)”.

On to “76 (VLADDHLIEV; listed as Homo sapiens) [compound 76]”, for which the “Peptide exchange” value was “++ (≥20% = ++)”. With “53 (FLLEIRQTL; listed as Homo sapiens) [compound 53]”, the “Peptide exchange” value is listed as “++ (≥20% = ++)”.

With “75 (FLIKSINLV; listed as Homo sapiens) [compound 75]”, the “Peptide exchange” value was “+++ (≥50 = +++)”. Under “72 (YSLEKVFGI; listed as Homo sapiens) [compound 72]” stands “++ (≥20% = ++)”. “66 (TLLKTIIKV; listed as Homo sapiens) [compound 66]”: the “Peptide exchange” value is “++ (≥20% = ++)”. With “37 (VLAPVILML; listed as Homo sapiens) [compound 37]”, the “Peptide exchange” value was “++ (≥20% = ++)”. Regarding “38 (VLLDTILQL; listed as Homo sapiens) [compound 38]”, the “Peptide exchange” value is reported as “+++ (≥50 = +++)”.

With “46 (GLSEVLVQI; listed as Homo sapiens) [compound 46]”, the “Peptide exchange” value was “+++ (≥50 = +++)”. As to “86 (GLLQGKLALL; listed as Homo sapiens) [compound 86]”, the “Peptide exchange” value is “++ (≥20% = ++)”.

Take “81 (SLLPALPKL; listed as Homo sapiens) [compound 81]”: the “Peptide exchange” value is “++ (≥20% = ++)”. In the case of “83 (IQWSIVPEV; listed as Homo sapiens) [compound 83]”, the “Peptide exchange” value was “+++ (≥50 = +++)”. Regarding “24 (FTLGTTVFL; listed as Homo sapiens) [compound 24]”, the “Peptide exchange” value is recorded as “+++ (≥50 = +++)”.

For the substance “48 (VVASNIMEV; listed as Homo sapiens) [compound 48]”, the “Peptide exchange” value is listed as “++ (≥20% = ++)”. For “112 (LLFDHLEPIEL; listed as Homo sapiens) [compound 112]”, the “Peptide exchange” value is “+++ (≥50 = +++)”. Turning to “96 (TLAETLVNL; listed as Homo sapiens) [compound 96]”, the “Peptide exchange” value is listed as “+++ (≥50 = +++)”.

Regarding “99 (GLAPHLEQI; listed as Homo sapiens) [compound 99]”, the “Peptide exchange” value was “++ (≥20% = ++)”. To “88 (TLAELHISL; listed as Homo sapiens) [compound 88]” belongs “++ (≥20% = ++)”; to “30 (QLFYTKIFL; listed as Homo sapiens) [compound 30]”, “++ (≥20% = ++)”. To “28 (FIADLVVGL; listed as Homo sapiens) [compound 28]” belongs “++ (≥20% = ++)”.
